# Assay results taken from the nanobody polyreactivity screen of Harvey et al. (2022).
# Test: yeast display, Sf9 membrane polyspecificity reagent, FACS + sequencing; frameworks hold sequencing errors
# How it was run: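 Genes from sorted yeast were amplified by colony PCR, read by MiSeq 2 × 250 sequencing and filtered on CDR length. These cells carried a synthetic nanobody library in Saccharomyces cerevisiae BJ5465 and were sorted by FACS into low and high (top ~1%) gates on anti-HA and streptavidin fluorescence. Polyreactivity is labelled according to the gate of origin.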
row,Sequence,polyreactivity (PSR sort gate)
1,QVQLVESGGGLVQAGGSLRLSCAASGSIFIANAMGWYRKAPGKERELVAAISRSGSTTYYADSVKGRFTISRDNAKNTVYLQMNSLKPEDTAVNYCNARYSLHSYYWFIYDSWGQGTQVTVSS,low polyreactivity
2,QVQLVESGGGLVQAGGSLRLSCAASGSIFIANTMGWYRQAPGKERELVAAISSDGGSTYYADSVKGRFTISRDNAKNTVYLQMNSLKPVDTAVYYCAVDGLEIGDTGFDYWGQGTQVTVSS,low polyreactivity
3,QVQLVESGGGLVQAGGSLRLSCAASGSIFIAYGMGWYRQEPGKERELVAAITVSGGNTYYADSVKGRFTISRDNAKNTVYLQMNSLKPEDTAVYYCAADYWYYYGKVLYDYWGQGTQVTVSS,low polyreactivity
4,QVQLVESGGGLVQAGGSLRLSCAASGSIFIGYAMGWYRQAPGKERELVAAITNGGRTYYADSVKGRFTISRDNAKNTVYLQMNSLKPEDTAVYYCAAVPSQTYRRTPYLWHDYWGQGTQVTVSS,high polyreactivity
5,QVQLVESGGGLVQAGGSLRLSCAASGSIFIIYAMGWYRQAPGKERALVAAISRGGTSTYADSVKGRFTISRDNAKNTVYLQMNSLKPEDTAVYYCNARRSSRTNRYNYWGQGTQVTVSS,high polyreactivity
6,QVQLVESGGGLVQAGGSLRLSCAASGSIFIPYAMGWYRQAPGKERELVAAIRDSGASTYYADSVKGRFTISRDNAKNTVYLQMNSLKPEDTAVYYCAVRFYDWRYYYWGQGTQVTVSS,high polyreactivity
7,QVQLVESGGGLVQAGGSLRLSCAASGSIFIPYAMGWYRQAPGKERELVAAISRRGGSTYYADSVKGRFTISRDNAKNTVYLQMNSLKPEDTAVYYCNKDVNAYGYFEYYYWGQGTQVTVSS,low polyreactivity
8,QVQLVESGGGLVQAGGSLRLSCAASGSIFIRNAMGWYRQAPGKERELVAAISWGGARTYYADSVKWRFTISRDNAKNTVYLQMNSLKPEDTAVYYCNALNVRGNKFDYWGQGTQVSVSS,high polyreactivity
9,QVQLVESGGGLVQAGGSLRLSCAASGSIFIRNAMGWYRQAPGKERELVASISRSGAYTRYADSVKGRFTISRDNAKNTVYLQMNSLKPEDTAVYYCAVRLVNYLSYWRTYNYWGQGTQVTVSS,high polyreactivity
10,QVQLVESGGGLVQAGGSLRLSCAASGSIFIRNVMGWSRQAPGKERELVAAISSRGGSTYYADSVKGRFTISRDNAKNTVDLQMNSLKPEDTAVYYCNRYSYLFPYYWKYDYWGQGTQVTVSS,high polyreactivity
11,QVQLVESGGGLVQAGGSLRLSCAASGSIFISNAMGWYRQAPGKERELFAAINWTTGRTRYADSVKGRFTISRDNAKNTVYLQMNSLKPEDTAVYYCAARPYGGGRRSIYYYWGQGNQVTVSS,high polyreactivity
12,QVQLVESGGGLVQAGGSLRLSCAASGSIFISNAMGWYRQAPGKERELVAAISRSGARTYYADSVKGRFTISRDNAKNTVYLQMNSLKPEDTAVYYCAVDGYSPYKYDYWGQGTQVTVSS,high polyreactivity
13,QVQLVESGGGLVQAGGSLRLSCAASGSIFISNAMGWYRQAPGKERELVAAITSSGGSTYYADSVKGRFTISRDNAKNTVYLQMNSLKPEDTAVYYCAARPGRNYYYWGQGTQVTVSS,high polyreactivity
14,QVQLVESGGGLVQAGGSLRLSCAASGSIFITYAMGWYRQAPGKERELVAAIRDSGDRTYYADSVKGRFTISRDNAKNTVYLQMNSLKPEDTAVYYCTARCQEPLKYDYSGQGTQVTVSS,low polyreactivity
15,QVQLVESGGGLVQAGGSLRLSCAASGSIFITYAMGWYRQAPGKERELVAAITDSGDSTYYADSVKGRFTISRDNAKNTVYLQMISLKPEDTAVYYCAKRYYGSYSHFIRTDGYWGQGTQVTVSS,low polyreactivity
16,QVQLVESGGGLVQAGGSLRLSCAASGSIFITYARGWYRQAPGKERELVAAIRDSGDRTYYADSVKGRFTISRDNAKNTVYLQMISLKPEDTAVYYCNARWQEPLKYDYWGQGTQVTVSS,low polyreactivity
17,QVQLVESGGGLVQAGGSLRLSCAASGSIFIVNDMGWYRQAPGKERELVAAISGRGGNTNYADSVKVRFTISRDNAKNTVYLQMNSLKPEDTSVYFCAARHTRDYDYWGQGTQVTVSS,high polyreactivity
18,QVQLVESGGGLVQAGGSLRLSCAASGSIFIVYAMGWYRQAPGKERELVAAISWSGGSTYYADSVKGRFTISRDNAKNTVYLQMNSLKPEDTAVYYCAAKYTLPFRDVKYYSWGQGTQVTVSS,high polyreactivity
19,QVQLVESGGGLVQAGGSLRLSCAASGSIFIVYAMGWYRQAPGKERELVAGIRGRGGSTYYADSVKGRFTISRDNAKNTVYLQMNSLKPEDTAVYYCAANPRSYQSPYGYWGQGTQVTVSS,high polyreactivity
20,QVQLVESGGGLVQAGGSLRLSCAASGSIFIVYAMGWYRQAPGKERELVATITSGGSTNYADSVKGRFTISRDNAKNTVYVQMNSLKPEVTAVYYCAAESYWGSGVVPGYDYWGQGTQVTVSS,low polyreactivity
21,QVQLVESGGGLVQAGGSLRLSCAASGSIFIWNALGCYRQAPGKERELVAAIRSSGGTTYYADSVKGRFTISRDNAKYTVYVQMNSLKPEDTAVYYCARRGYSSSYRYPRYYYWGQGTQVTVSS,high polyreactivity
22,QVQLVESGGGLVQAGGSLRLSCAASGSIFIWNAMGWYRQAPGKERELVAAISFSGGSTYYADSVKGRFTISRDNAKNTVYLQMNSLKPEDTAVYYCAADSFSGRYYWWEYDYWGQGTQVTVSS,low polyreactivity

row,Sequence,polyreactivity (PSR sort gate)
1,QVQLVESGGGLVQAGGSLRLSCAASGSIFIWNAMGWYRQAPGKERELVAAISFSGGSTYYADSVKGRFTISRDNAKNTVYLQMNSLKPEDTAVYYCAADSYSGRYYWWEYDYWGQGTQVTVSS,low polyreactivity
2,QVQLVESGGGLVQAGGSLRLSCAASGSIFIYNARGWYRQAPGKERELVAAINWTGGSTYYADSVKGRFTISRDNAKNTVYLQMNSLKPEDTAVYYCNALRYGSTRGYDYWGQGTQVTVSS,high polyreactivity
3,QVQLVESGGGLVQAGGSLRLSCAASGSIFIYYAMGWYRQAPGKERELVAAISFSGARTYYADSVKGRFTISRDNAKNTVFLQMNSLKPEDTAVYYCNVEIGTGDYDYWGQGTQVTVSS,low polyreactivity
4,QVQLVESGGGLVQAGGSLRLSCAASGSIFKANAMGWYRQAPGKESELVATITSSGTRTYYADSVKGRFTISRDNAKNTVYLQMNSLKPEDTAVYYCNARAYPYQRGRYGYWGQGTQVTVSS,high polyreactivity
5,QVQLVESGGGLVQAGGSLRLSCAASGSIFKEYAMGWYRQAPGKERELVATISWSGGSTYYADSVKGRFTISRDNAKNTVYLQMNSLKPEDTAVYYCNKRTPWWYVVRYDYWGQGTQVTVSS,high polyreactivity
6,QVQLVESGGGLVQAGGSLRLSCAASGSIFKGNAMGWYRQAPGTERELVASITRSVARTYYADSVKGRFTISRDNAKNTVFLLMNSLKAEDTAVYYCAADWYQWGGRYYAPRYYYWGQGTQVTVSS,high polyreactivity
7,QVQLVESGGGLVQAGGSLRLSCAASGSIFKGYAMGWSRQAPGKERELVASITSSGGSTYYADSVKGRFTISRDNAKNTVYLQMNCLKPEDTAVYYCATDHDSVRVLVSSTSDYDYWGQGTQVTVSS,low polyreactivity
8,QVQLVESGGGLVQAGGSLRLSCAASGSIFKPYAMGWYRQAPGKERELVAAINRGGTSTYYADSVKGRFTISRDNAKNTVYLQMISLKPEDTAVYYCAAPNRYSVPMYYWGQGTQVTVSS,low polyreactivity
9,QVQLVESGGGLVQAGGSLRLSCAASGSIFKQYAMGWYRQAPGKERELVARITGSGGSTYYADSVKGRFTISRDNAKNTVYLQLNSLKPEDTAVYYCANKRYARSSGGYDYWGQGTQVTVSS,low polyreactivity
10,QVQLVESGGGLVQAGGSLRLSCAASGSIFKQYAMGWYRQAPGKERELVARITGSGGSTYYADSVKGRFTISRDNAKNTVYLQMNSLKPEDTAVYYCATKRYARSSGGYDYWGQGTQVTVSS,low polyreactivity
11,QVQLVESGGGLVQAGGSLRLSCAASGSIFKRYAMGWYRHAPGKERELVAAISYSGGSTNYADSVKGRFTISRDNAKNTVYLQMNSLKPEDTAVYYCAKRSTSRGYDYWGQGTQVTVSS,high polyreactivity
12,QVQLVESGGGLVQAGGSLRLSCAASGSIFKRYAMGWYRQAPGKERELVASISSRGSSTNYADSVKGRFTISRDNAKNTVYLQMNSLKPEDTAVYYCAAEVYRGKYWSTYRGGDYWGQGTQVTVSS,high polyreactivity
13,QVQLVESGGGLVQAGGSLRLSCAASGSIFKTNAMGWYRQAPGKERELVAAITGSGGSTYYADSVKGRFTISRDNAKNTVYLQMNSLKPEDTAVYYCAKRSYRPILRWSYDYWGQGTQVTVSS,low polyreactivity
14,QVQLVESGGGLVQAGGSLRLSCAASGSIFKTYAMGWNRQAPGKEREFVARITSSGGRTYYADSVKGRFTISRDNAKNTVYLQMNSLKPEDTAVYYCAKPYPRGYTTYSYDYWGQGTQVTVSS,high polyreactivity
15,QVQLVESGGGLVQAGGSLRLSCAASGSIFKVYAMGWYRQAPGKEREIVAAITSSDSNTNYADSVKGRFTISRDNEKNTVYLQMNSLKPEDTAVYYCNARIYTRRYVPHYGFNYWGQGTQVTVSS,low polyreactivity
16,QVQLVESGGGLVQAGGSLRLSCAASGSIFKVYAMGWYRQAPGKERELVATISGSGGSTYYADSVKGRFTISRDNAKKTVYLQMNSLKPEDTAVYYCAADAGYAFAVGGGWVEALYDYWGQGTQVTVSS,low polyreactivity
17,QVQLVESGGGLVQAGGSLRLSCAASGSIFKWNDMGWYRQSPGKERELVAAITWSGGRTYYADSVKGRFTISRDNAKNTVYLQMNSLKPEDTAVYYCAATQYRSDGWRYDYWGQGTQVTVSS,high polyreactivity
18,QVQLVESGGGLVQAGGSLRLSCAASGSIFKYNAMGWYRQAPGKEREFVAAISSSSGNTYYADSVKGRFTISRDNAKNSVYIQMNSLKPEDTAVYYCAARTFAYRRGWFGYWGQGTQVTVSS,high polyreactivity
19,QVQLVESGGGLVQAGGSLRLSCAASGSIFKYNAMGWYRQAPGKERELVAAITYSGGSTYYADSVKGRFTISRDNAKNTVYLQMNSLKPEDTAVYYCNAYRRFSAFDYWGQGTQVTVSS,high polyreactivity
20,QVQLVESGGGLVQAGGSLRLSCAASGSIFKYNAMGWYRQAPGKERELVATITSSGSTTYYADSVKGRFTISRDNAKYTVYLQMNSLKPEDTAVYYCNARYSYRRDYWGQGTEVTVSS,high polyreactivity
21,QVQLVESGGGLVQAGGSLRLSCAASGSIFKYNTMGWYIQAPGKERELVATISGGGRTYYADSVKGRFTISRDNAKNTVYLQMNSLKPEDTAVYYCAARKRGTFTYDYWGQGTQVTVSS,high polyreactivity
